The text below walks through data of US5795974.

In experiment [1] the target is I-Eα chain of the murine MHC (class II) (mouse).
The target in experiment [2] is Vβ 8.2 TCR on T hybridoma.

MBP-MAM fusion protein yielded an Uptake of 3H-TdR by Mouse Lymphocytes (counts per minute × 10^-3) in experiment [1] of 80.7.
Substance “Native Mycoplasma arthritidis T-cell mitogen (MAM) (ligand)” came in with an Uptake of 3H-TdR by Mouse Lymphocytes (counts per minute × 10^-3) in experiment [1] of 108. Also, the IL-2 (U/ml) produced by T hybridomas + APCs with Vβ 11 TCR on T hybridoma was 0 U/ml; in the experiment with Vβ 6 TCR on T hybridoma, 640 U/ml; in experiment [2], 232 U/ml; in the experiment with Vβ 1 TCR on T hybridoma, 0 U/ml; with Vβ 3 TCR on T hybridoma, 0 U/ml.
In the case of “Staphylococcus enterotoxin A (from UniProt P0A0L2) (ligand)”, the IL-2 (U/ml) produced by T hybridomas + APCs with Vβ 11 TCR on T hybridoma turned out to be 1180 U/ml; in experiment [2], 0 U/ml; with Vβ 1 TCR on T hybridoma it was 691 U/ml; with Vβ 3 TCR on T hybridoma, 1880 U/ml.
Take “Staphylococcus enterotoxin B (from UniProt P01552) (ligand)”: the IL-2 (U/ml) produced by T hybridomas + APCs was determined as 0 U/ml in the experiment with Vβ 11 TCR on T hybridoma; 0 U/ml with Vβ 6 TCR on T hybridoma; 608 U/ml in experiment [2]; 0 U/ml with Vβ 1 TCR on T hybridoma; 1830 U/ml with Vβ 3 TCR on T hybridoma.
